US10450368

Tests used:
[1] = target: HIV-1 CH505 transmitted/founder gp120 Env (HIV-1); test: competition ELISA, blocking of CH235 binding to CH505 TF gp120
CH505.M7D8gp120/293F = test: direct-binding ELISA
CH505.M11D8gp120/293F = test: direct-binding ELISA
[2] = target: CH505w160.C2D8gp120 (HIV-1); test: direct-binding ELISA
[3] = target: CH505_w137V209C12.D11gp120 (HIV-1); test: direct-binding ELISA
[4] = target: CH505w136.B36D8gp120 (HIV-1); test: direct-binding ELISA
[5] = target: CH505w160.C14D8gp120 (HIV-1); test: direct-binding ELISA
[6] = target: CH505w136.B20D8gp120 (HIV-1); test: direct-binding ELISA
[7] = target: CH505w160.C4D8gp120 (HIV-1); test: direct-binding ELISA
[8] = target: CH505w136.B5D8gp120 (HIV-1); test: direct-binding ELISA
[9] = target: CH505w136.B8D8gp120 (HIV-1); test: direct-binding ELISA
[10] = target: CH505w136.B10D8gp120 (HIV-1); test: direct-binding ELISA
[11] = target: CH505w160.T2D8gp120 (HIV-1); test: direct-binding ELISA
CH505.M9D8gp120/293F = test: direct-binding ELISA
[12] = target: CH505w160.C11D8gp120 (HIV-1); test: direct-binding ELISA
[13] = target: CH505.TF mutant gp120 M6 (HIV-1); test: direct-binding ELISA
CH505.M10D8gp120 = test: direct-binding ELISA
[14] = target: CH505w136.B4D8gp120 (HIV-1); test: direct-binding ELISA
[15] = target: CH505w160.C12D8gp120 (HIV-1); test: direct-binding ELISA
[16] = target: CH505.TF mutant gp120 M20 (HIV-1); test: direct-binding ELISA
[17] = target: CH505w136.B12D8gp120 (HIV-1); test: direct-binding ELISA
CH505.M19D8gp120 = test: direct-binding ELISA
[18] = target: CH505w160.D1D8gp120 (HIV-1); test: direct-binding ELISA
[19] = target: CH505w136.B27D8gp120 (HIV-1); test: direct-binding ELISA
[20] = target: CH505w136.B18D8gp120 (HIV-1); test: direct-binding ELISA
[21] = target: CH505w136.B29D8gp120 (HIV-1); test: direct-binding ELISA
[22] = target: CH505w160.A1D8gp120 (HIV-1); test: direct-binding ELISA
[23] = target: CH505w136.B3D8gp120/293F (HIV-1); test: direct-binding ELISA
[24] = target: CH505w160.D5D8gp120/293F (HIV-1); test: direct-binding ELISA
CH505.M5D8gp120293F = test: direct-binding ELISA
[25] = target: HIV-1 CH505 transmitted/founder gp120 Env (HIV-1); test: competition ELISA, blocking of CH239 binding to CH505 TF gp120
Centromere B [26] = target: Centromere B (UniProt P07199); test: AtheNA, Ab 12.5 ug/ml
Centromere B, sequence (P07199 whole entry): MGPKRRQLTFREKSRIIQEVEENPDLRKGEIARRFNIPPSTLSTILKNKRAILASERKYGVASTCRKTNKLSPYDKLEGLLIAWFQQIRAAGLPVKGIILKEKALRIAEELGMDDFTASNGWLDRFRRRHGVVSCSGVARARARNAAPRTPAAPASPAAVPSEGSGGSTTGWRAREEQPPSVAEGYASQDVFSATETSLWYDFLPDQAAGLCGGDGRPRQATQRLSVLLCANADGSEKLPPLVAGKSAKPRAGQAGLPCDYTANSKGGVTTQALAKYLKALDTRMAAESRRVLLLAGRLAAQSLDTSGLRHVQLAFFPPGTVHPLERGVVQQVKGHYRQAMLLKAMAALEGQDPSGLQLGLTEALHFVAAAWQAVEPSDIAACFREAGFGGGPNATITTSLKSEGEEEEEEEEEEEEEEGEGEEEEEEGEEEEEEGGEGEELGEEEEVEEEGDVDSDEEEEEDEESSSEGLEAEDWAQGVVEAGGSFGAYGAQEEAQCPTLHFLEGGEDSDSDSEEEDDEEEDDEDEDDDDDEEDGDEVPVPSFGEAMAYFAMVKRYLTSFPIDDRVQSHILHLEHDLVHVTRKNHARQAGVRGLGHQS

RNP (ribonucleoprotein) [27] = test: AtheNA, Ab 12.5 ug/ml
Jo-1 [28] = target: Jo-1 (UniProt P12081); test: AtheNA, Ab 12.5 ug/ml
Jo-1, sequence (P12081 whole entry): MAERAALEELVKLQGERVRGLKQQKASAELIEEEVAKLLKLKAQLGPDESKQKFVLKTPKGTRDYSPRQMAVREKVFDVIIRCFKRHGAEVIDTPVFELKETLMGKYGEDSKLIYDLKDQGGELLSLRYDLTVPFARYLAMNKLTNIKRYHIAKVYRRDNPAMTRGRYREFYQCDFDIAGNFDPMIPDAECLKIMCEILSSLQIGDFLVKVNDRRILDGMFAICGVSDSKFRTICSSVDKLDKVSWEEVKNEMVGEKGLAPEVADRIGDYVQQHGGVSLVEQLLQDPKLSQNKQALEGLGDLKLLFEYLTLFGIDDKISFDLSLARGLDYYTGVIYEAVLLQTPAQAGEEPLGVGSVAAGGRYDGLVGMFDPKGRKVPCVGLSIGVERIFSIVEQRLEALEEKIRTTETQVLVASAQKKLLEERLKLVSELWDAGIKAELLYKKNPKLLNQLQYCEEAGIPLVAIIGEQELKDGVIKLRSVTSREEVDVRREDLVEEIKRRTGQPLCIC

Scl-70 [29] = target: Scl-70 (UniProt P11387); test: AtheNA, Ab 12.5 ug/ml
Scl-70, sequence (P11387 whole entry): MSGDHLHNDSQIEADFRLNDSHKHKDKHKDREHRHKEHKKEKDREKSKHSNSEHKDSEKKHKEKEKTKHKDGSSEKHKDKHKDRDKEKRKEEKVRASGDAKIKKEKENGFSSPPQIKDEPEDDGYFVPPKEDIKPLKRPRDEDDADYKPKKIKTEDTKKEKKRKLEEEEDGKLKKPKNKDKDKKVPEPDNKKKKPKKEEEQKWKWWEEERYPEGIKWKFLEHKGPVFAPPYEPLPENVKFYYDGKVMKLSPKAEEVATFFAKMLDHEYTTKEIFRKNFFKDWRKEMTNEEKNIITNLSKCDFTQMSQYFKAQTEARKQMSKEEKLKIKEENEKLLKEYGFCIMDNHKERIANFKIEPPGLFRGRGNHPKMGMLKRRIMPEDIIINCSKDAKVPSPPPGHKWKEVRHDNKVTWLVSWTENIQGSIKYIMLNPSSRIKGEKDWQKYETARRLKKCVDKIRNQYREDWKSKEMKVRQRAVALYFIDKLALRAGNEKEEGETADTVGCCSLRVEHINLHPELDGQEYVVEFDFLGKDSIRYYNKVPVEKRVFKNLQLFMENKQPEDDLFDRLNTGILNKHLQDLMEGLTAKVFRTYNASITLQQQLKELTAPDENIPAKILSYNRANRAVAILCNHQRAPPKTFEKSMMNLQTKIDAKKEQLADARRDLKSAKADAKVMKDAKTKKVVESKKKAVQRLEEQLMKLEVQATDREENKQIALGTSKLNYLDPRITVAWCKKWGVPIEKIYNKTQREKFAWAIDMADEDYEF

SSB [30] = target: SSB (UniProt P05455); test: AtheNA, Ab 12.5 ug/ml
SSB, sequence (P05455 whole entry): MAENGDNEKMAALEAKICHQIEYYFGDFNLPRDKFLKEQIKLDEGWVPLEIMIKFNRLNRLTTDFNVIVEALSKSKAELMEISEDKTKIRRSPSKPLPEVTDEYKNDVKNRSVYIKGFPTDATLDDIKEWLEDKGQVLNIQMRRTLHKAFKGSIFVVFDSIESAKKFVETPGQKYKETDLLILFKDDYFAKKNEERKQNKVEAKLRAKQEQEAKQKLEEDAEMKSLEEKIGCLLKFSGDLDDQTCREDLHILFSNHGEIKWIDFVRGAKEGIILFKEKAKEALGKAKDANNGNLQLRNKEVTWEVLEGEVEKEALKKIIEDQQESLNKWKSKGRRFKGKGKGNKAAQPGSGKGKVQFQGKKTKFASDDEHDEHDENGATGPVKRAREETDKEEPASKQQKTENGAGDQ

Sm (Smith antigen) [31] = test: AtheNA, Ab 12.5 ug/ml
Histones [32] = test: AtheNA, Ab 12.5 ug/ml
SSA [33] = test: AtheNA, Ab 12.5 ug/ml
[34] = target: HIV-1 CH505 transmitted/founder gp120 Env (HIV-1); test: competition ELISA; competitor biotinylated CH240 on CH505 TF gp120
Centromere B [35] = target: Centromere B (UniProt P07199); test: AtheNA, Ab 25 ug/ml
RNP (ribonucleoprotein) [36] = test: AtheNA, Ab 25 ug/ml
Jo-1 [37] = target: Jo-1 (UniProt P12081); test: AtheNA, Ab 25 ug/ml
Scl-70 [38] = target: Scl-70 (UniProt P11387); test: AtheNA, Ab 25 ug/ml
SSB [39] = target: SSB (UniProt P05455); test: AtheNA, Ab 25 ug/ml
Sm (Smith antigen) [40] = test: AtheNA, Ab 25 ug/ml
Histones [41] = test: AtheNA, Ab 25 ug/ml
SSA [42] = test: AtheNA, Ab 25 ug/ml

Substance: CH106 (antibody)
- IC50 [1]: 4.3 mg/L
- LogAUC (CH505.M7D8gp120/293F): 11
- LogAUC (CH505.M11D8gp120/293F): 12.8
- LogAUC [2]: 9.29
- LogAUC [3]: 12.2
- LogAUC [4]: 13.1
- LogAUC [5]: 6.94
- LogAUC [6]: 12.1
- LogAUC [7]: 6.8
- LogAUC [8]: 10.9
- LogAUC [9]: 11.7
- LogAUC [10]: 8.97
- LogAUC [11]: 6.16
- LogAUC (CH505.M9D8gp120/293F): 11
- LogAUC [12]: 8.15
- LogAUC [13]: 12.6
- LogAUC (CH505.M10D8gp120): 11.8
- LogAUC [14]: 11.8
- LogAUC [15]: 12.2
- LogAUC [16]: 10.7
- LogAUC [17]: 11.9
- LogAUC (CH505.M19D8gp120): 12.2
- LogAUC [18]: 7.06
- LogAUC [19]: 11.2
- LogAUC [20]: 13.3
- LogAUC [21]: 12
- LogAUC [22]: 7.6
- LogAUC [23]: 12.6
- LogAUC [24]: 5.64
- LogAUC (CH505.M5D8gp120293F): 8.37
- IC50 [25]: 4.6 mg/L
- AtheNA signal (relative luminescence units) (Centromere B [26]): 2
- AtheNA signal (relative luminescence units) (RNP (ribonucleoprotein) [27]): 2
- AtheNA signal (relative luminescence units) (Jo-1 [28]): 3
- AtheNA signal (relative luminescence units) (Scl-70 [29]): 3
- AtheNA signal (relative luminescence units) (SSB [30]): 5
- AtheNA signal (relative luminescence units) (Sm (Smith antigen) [31]): 4
- AtheNA signal (relative luminescence units) (Histones [32]): 2
- AtheNA signal (relative luminescence units) (SSA [33]): 11
- IC50 [34]: 2.3 mg/L
- AtheNA signal (relative luminescence units) (Centromere B [35]): 2
- AtheNA signal (relative luminescence units) (RNP (ribonucleoprotein) [36]): 3
- AtheNA signal (relative luminescence units) (Jo-1 [37]): 2
- AtheNA signal (relative luminescence units) (Scl-70 [38]): 2
- AtheNA signal (relative luminescence units) (SSB [39]): 3
- AtheNA signal (relative luminescence units) (Sm (Smith antigen) [40]): 1
- AtheNA signal (relative luminescence units) (Histones [41]): 3
- AtheNA signal (relative luminescence units) (SSA [42]): 8
